According to patent publication US20230303695A1 (SHANGHAI XBH BIOTECHNOLOGY, published 2023):
Numbering of substitutions follows the chain as printed. Names and notes keep the numbering of the source.

T1: recombinant human IGSF8 extracellular domain tagged by a human Fc region (IGSF8-hFc) (human, UniProt Q969P0 28-579, biotin label in Examples 17, 18 and 28 (site not given))
T1 construct: also called IGSF8-Fc fusion protein; IGSF8-hFc-biotin; not shown: human Fc region
T1 sequence: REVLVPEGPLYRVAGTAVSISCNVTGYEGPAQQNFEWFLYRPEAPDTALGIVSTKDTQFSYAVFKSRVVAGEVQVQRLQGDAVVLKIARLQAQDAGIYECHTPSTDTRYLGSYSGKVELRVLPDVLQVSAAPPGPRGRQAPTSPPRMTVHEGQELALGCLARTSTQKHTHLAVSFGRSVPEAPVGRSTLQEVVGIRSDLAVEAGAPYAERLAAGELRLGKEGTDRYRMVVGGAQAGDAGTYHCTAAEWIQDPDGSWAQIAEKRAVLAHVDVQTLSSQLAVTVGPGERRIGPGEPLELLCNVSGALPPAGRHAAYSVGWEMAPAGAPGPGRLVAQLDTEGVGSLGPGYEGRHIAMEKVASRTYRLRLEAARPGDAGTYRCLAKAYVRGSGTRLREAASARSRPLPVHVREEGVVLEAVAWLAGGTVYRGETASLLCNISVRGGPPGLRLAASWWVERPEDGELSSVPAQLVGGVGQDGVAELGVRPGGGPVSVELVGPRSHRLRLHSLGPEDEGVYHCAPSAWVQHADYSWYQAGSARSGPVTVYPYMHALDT

B1: L2-08 (antibody, V domains shown)
VH: EVQLVESGGGLEQPGGSLRLSCAASGFTFRDYAMTWVRQAPGKGLEWVSSISGSGGSTYYADSVKGRFTISRDNSKNTLYLQMNSLRAEDTAIYYCARGEYSSGWPSWFDPWGQGTLVTVSS
VL: DIQMTQSPSSLSASVGDRVTITCRASRTVGTFLNWYQQKPGKAPKALILGVSILEGGVPSRFSGSGSGTDFTLTISSLQPEDIATYYCQQSHDVPRTFGQGTKVEIK
B2: L2-06 (antibody, V domains shown)
VH: B1 VH
VL: B1 VL with P80L, I83F
B3: L2-07 (antibody, V domains shown)
VH: B1 VH
VL: B1 VL with A84G
B4: L2-09 (antibody, V domains shown)
VH: B1 VH
VL: B1 VL with G50H, V51T, A84G
B5: L2-02 (antibody, V domains shown)
VH: B1 VH with A24G, S57N
VL: EIVLTQSPSSLSASVGDRVTISCRASRTVGTFLNWYQQRPGKPPQALILHTSILEGGVSSRFSGAGSGTEFSLTISSLQPEDIGTYYCQQSHDVPRTFGQGTKVDLR
B6: L2-03 (antibody, V domains shown)
VH: B1 VH with A24G
VL: B5 VL with H50G, T51V
B7: L2-04 (antibody, V domains shown)
VH: B1 VH
VL: B5 VL with H50G, T51V
B8: L2-05 (antibody, V domains shown)
VH: B1 VH with S50A
VL: B5 VL with H50G, T51V
B9: L2VH-D31S (antibody, V domains shown)
VH: B1 VH with A24G, D31S, S57N
VL: B5 VL with H50G, T51V
B10: L2VH-R30S (antibody, V domains shown)
VH: B1 VH with A24G, R30S, S57N
VL: B5 VL with H50G, T51V
B11: L2VH-R98K (antibody, V domains shown)
VH: B1 VH with A24G, S57N, R98K
VL: B5 VL with H50G, T51V
B12: L2VH-S50A (antibody, V domains shown)
VH: B1 VH with A24G, S50A, S57N
VL: B5 VL with H50G, T51V
B13: L2VH-T35S (antibody, V domains shown)
VH: B1 VH with A24G, T35S, S57N
VL: B5 VL with H50G, T51V
B14: L2VL-D93S (antibody, V domains shown)
VH: B1 VH with A24G, S57N
VL: B5 VL with H50G, T51V, D93S
B15: L2VL-G56S (antibody, V domains shown)
VH: B1 VH with A24G, S57N
VL: B5 VL with H50G, T51V, G56S
B16: L2VL-I53S (antibody, V domains shown)
VH: B1 VH with A24G, S57N
VL: B5 VL with H50G, T51V, I53S
B17: L2VL-S52V (antibody, V domains shown)
VH: B1 VH with A24G, S57N
VL: B5 VL with H50G, T51V, S52V
B18: L1-02 (antibody, V domains shown)
VH: QVQLVESGGGVVQPGRSLRLSCAASGFTFSTYGMHWVRQAPGKGLEWVAVIWDDGSYKYYGDSVKGRFTISRDNSKNTLYLQMNSLRAEDTAVYYCARDGSGWGYAFDIWGQGTMVTVSS
VL: DIQLTQSPSSLSASVGDRVTITCQASQDISKPLNWYQHKPGKAPNPLVFDAANLETGVPPRFSATGSGTDFSLTITSLQPEDFATYYCQQYDSFPYTFGQGTRLDIK
B19: L1-03 (antibody, V domains shown)
VH: B18 VH
VL: B18 VL with K31E, P32Y, D50R, A51S, A52P
B20: L1-04 (antibody, V domains shown)
VH: B18 VH
VL: B18 VL with K31E, P32Y, D50G, A51S, A52P
B21: L1-05 (antibody, V domains shown)
VH: B18 VH
VL: B18 VL with S30T, P32G
B22: L1-06 (antibody, V domains shown)
VH: B18 VH
VL: B18 VL with S30G, K31P, P32W
B23: L1-07 (antibody, V domains shown)
VH: B18 VH
VL: B18 VL with S30E, K31W, P32W
B24: L1-08 (antibody, V domains shown)
VH: B18 VH
VL: B18 VL with S30G, K31A, P32Y
B25: L1-09 (antibody, V domains shown)
VH: B18 VH
VL: B18 VL with K31E, P32Y, D50A, A51R, A52D
B26: L1-10 (antibody, V domains shown)
VH: B18 VH
VL: B18 VL with K31E, P32Y, D50T, A51S
B27: L1-11 (antibody, V domains shown)
VH: B18 VH
VL: B18 VL with S30E, K31W, P32A
B28: L1-12 (antibody, V domains shown)
VH: B18 VH
VL: B18 VL with K31E, P32Y, D50G, A52D
B29: L1-13 (antibody, V domains shown)
VH: B18 VH
VL: B18 VL with K31E, P32Y, A52P
B30: L1-14 (antibody, V domains shown)
VH: B18 VH
VL: B18 VL with K31E, P32Y, D50S, A51Q, A52P
B31: L1-15 (antibody, V domains shown)
VH: B18 VH
VL: B18 VL with S30M, P32T
B32: L1VH-D53Y (antibody, V domains shown)
VH: B18 VH with D53Y
VL: B18 VL with K31E, P32Y
B33: L1VH-D54T (antibody, V domains shown)
VH: B18 VH with D54T
VL: B18 VL with K31E, P32Y

molecular target: T1, recombinant human IGSF8 extracellular …; test: SPR, Ab captured
Description: The binding affinities of the L1 and L2 antibodies to IGSF8 recombinant protein were determined by surface plasmon resonance (SPR). Briefly, anti-human Fab antibody was imobilized on acarboxyl-derivatized SPR chip surface, and the antibodies were captured on the resulting surface at 5 μg/ml for 30 seconds.

Binder	Kd [nM]	koff [s⁻¹]	kon [M⁻¹ s⁻¹]
B1	0.869	0.000112	129000
B2	5.45	0.000249	45700
B3	1.16	0.000129	111000
B4	0.475	7.15e-05	151000
B5	4.85	0.000131	27100
B6	3.27	0.000465	142000
B7	2.98	0.000142	47600
B8	2.63	0.000112	42700
B9	465	0.00567	12200
B10	146	0.00165	11400
B11	48.7	0.00248	51000
B12	23.7	0.000486	20500
B13	22.8	0.00139	61100
B14	68	0.00202	29700
B15	29.1	0.00311	107000
B16	1280	0.00173	1350
B17	64.5	0.000806	12500

Binder	Kd [nM]	koff [s⁻¹]	kon [M⁻¹ s⁻¹]
B18	4.22	0.00127	300000
B19	5.88	0.00172	293000
B20	7.33	0.0022	300000
B21	6.17	0.00148	241000
B22	2.3	0.00104	453000
B23	1.34	0.000445	332000
B24	5.78	0.00253	437000
B25	5.47	0.00223	408000
B26	6.52	0.00196	301000
B27	7.08	0.0024	339000
B28	3.08	0.00142	461000
B29	4.88	0.00216	443000
B30	6.41	0.00244	381000
B31	4.28	0.00155	362000
B32	365	0.0168	46100
B33	571	0.00131	2290
